According to US20240158448A1 (published 2024):
No end group written: not given here. FAM = 5(6)-carboxyfluorescein

Experiments:
[1] = molecular target: T1, human SIRPα expressed on cells (PMA-differentiated THP-1 macrophages; A549 cells) (human, UniProt P78324 31-504); assay: fluorescence microscopy saturation binding; live THP-1 macrophages
[2] = molecular target: T1, human SIRPα expressed on cells …; assay: fluorescence microscopy saturation binding; fixed THP-1 macrophages
[3] = molecular target: T2, mouse SIRPα expressed on J774A.1 macrophages (mouse, UniProt P97797 32-513); assay: fluorescence microscopy saturation binding; live J774A.1 macrophages
T2 chain: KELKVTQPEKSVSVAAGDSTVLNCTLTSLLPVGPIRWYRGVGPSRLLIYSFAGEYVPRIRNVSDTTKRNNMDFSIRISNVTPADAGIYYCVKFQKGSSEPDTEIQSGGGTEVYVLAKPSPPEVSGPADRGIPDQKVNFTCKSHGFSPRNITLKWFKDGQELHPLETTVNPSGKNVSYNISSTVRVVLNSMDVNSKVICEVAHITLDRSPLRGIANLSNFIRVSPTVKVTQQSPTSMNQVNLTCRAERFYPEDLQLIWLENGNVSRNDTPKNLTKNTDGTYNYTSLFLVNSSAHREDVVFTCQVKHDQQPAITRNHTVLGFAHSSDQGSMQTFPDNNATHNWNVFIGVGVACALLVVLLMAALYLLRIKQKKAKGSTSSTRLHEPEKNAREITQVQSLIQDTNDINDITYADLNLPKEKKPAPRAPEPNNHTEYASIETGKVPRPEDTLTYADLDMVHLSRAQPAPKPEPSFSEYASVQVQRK

[4] = molecular target: T1, human SIRPα expressed on cells …; assay: fluorescence microscopy saturation binding; live THP-1 macrophages, corrected by subtracting nS-X-FAM

B1: FAM-labeled nS-V (peptide)
peptide: K(FAM)VTELVREG-NH2
B1 showed a Kd [1] of 161 µM, a Kd [2] of 32 µM and a Kd [3] of 203 µM. It also gave a Kd [4] of 123 µM.

B2: FAM-labeled nS-wt (peptide)
peptide: K(FAM)VTELTREG-NH2
B2 gave a Kd [1] of 148 µM, a Kd [3] of 138 µM and a Kd [4] of 52 µM.

B3: FAM-labeled nS-F (peptide)
peptide: K(FAM)VTELFREG-NH2
Binder B3 has a Kd [1] of 195 µM and a Kd [4] of 93 µM.

B4: FAM-labeled nS-X (peptide)
peptide: K(FAM)LETVEGTR-NH2
For B4, the Kd [1] was 916 µM.
